Experimental data from US20160068605A1 (Janssen / Centocor, published 2016).

T1: cyno CD123 ECD displayed on pDisplay-transfected cells (cynomolgus monkey)
T1 construct: ECD anchored on the surface of stably transfected HEK293 cells; also called cynoCD123 SP1 cells; cynoCD123 cells
T1 chain: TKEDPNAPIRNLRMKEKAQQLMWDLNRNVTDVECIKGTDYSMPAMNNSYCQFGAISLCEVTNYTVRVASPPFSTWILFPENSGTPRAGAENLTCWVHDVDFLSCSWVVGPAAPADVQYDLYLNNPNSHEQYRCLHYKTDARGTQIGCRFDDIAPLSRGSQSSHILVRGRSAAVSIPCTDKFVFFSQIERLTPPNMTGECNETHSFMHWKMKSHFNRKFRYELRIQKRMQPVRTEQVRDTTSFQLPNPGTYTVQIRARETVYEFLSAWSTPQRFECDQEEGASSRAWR

T2: Recombinant human CD123 SP2 ECD protein (human, UniProt P26951 101-303)
T2 construct: also called rhCD123 SP2; CD123 ECD SP2
T2 sequence: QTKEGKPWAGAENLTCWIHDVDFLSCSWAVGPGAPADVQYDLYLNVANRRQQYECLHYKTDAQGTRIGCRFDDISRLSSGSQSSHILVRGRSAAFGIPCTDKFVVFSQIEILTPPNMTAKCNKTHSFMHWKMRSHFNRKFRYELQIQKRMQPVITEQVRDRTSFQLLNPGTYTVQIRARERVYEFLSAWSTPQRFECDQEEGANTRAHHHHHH

T3: Recombinant human CD123 SP1 ECD-His tag protein (human, UniProt P26951 20-305)
T3 construct: bought from R&D Systems (#301-R3/CF); biotinylated for some assays; also called rhCD123 SP1; huCD123 ECD SP1
T3 sequence: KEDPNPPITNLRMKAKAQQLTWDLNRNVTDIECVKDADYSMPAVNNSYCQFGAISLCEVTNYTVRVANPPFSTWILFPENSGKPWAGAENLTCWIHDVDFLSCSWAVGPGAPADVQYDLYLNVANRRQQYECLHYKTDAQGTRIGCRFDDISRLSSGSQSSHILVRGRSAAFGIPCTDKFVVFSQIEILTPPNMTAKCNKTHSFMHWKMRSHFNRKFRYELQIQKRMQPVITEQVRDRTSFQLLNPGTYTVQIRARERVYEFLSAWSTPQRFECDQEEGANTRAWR

T4: human CD123 SP1 ECD displayed on pDisplay-transfected cells (human, UniProt P26951 20-305)
T4 construct: ECD anchored on the surface of stably transfected HEK293 cells by the PDGFR transmembrane domain; also called hCD123 SP1 cells; hCD123 cells
T4 sequence: T3 sequence

T5: sp2 isoform of human CD123 ECD with C-terminal 8xHis tag (crystallography) (human, UniProt P26951 101-303)
T5 construct: expressed in baculovirus-infected insect cells; also called CD123 sp2; CD123 SP2 ECD
T5 sequence: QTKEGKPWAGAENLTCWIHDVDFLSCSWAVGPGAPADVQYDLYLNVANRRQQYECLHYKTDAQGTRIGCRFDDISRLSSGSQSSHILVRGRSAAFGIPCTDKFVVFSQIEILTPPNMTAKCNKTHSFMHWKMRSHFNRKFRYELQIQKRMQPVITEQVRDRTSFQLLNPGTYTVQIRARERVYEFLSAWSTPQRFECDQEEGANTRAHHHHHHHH

B1: I3RB120 (Fab, V domains shown)
VH: EVQLLESGGGLVQPGGSLRLSCAASGFTFSGYWMHWVRQAPGKGLEWVSAIRSDGSSKYYADSVKGRFTISRDNSKNTLYLQMNSLRAEDTAVYYCAKDGVIEDTFDYWGQGTLVTVSS
VL: EIVLTQSPATLSLSPGERATLSCRASQSVSSYLAWYQQKPGQAPRLLIYDASNRATGIPARFSGSGSGTDFTLTISSLEPEDFAVYYCQQRSNWPLTFGQGTKVEIK
notes: also called Fab I3RB120; I3RB2 Fab
B2: single-chain Fv fragment of anti-CD123 mAb I3RB18 (scFv)
scFv: EIVLTQSPGTLSLSPGERATLSCRASQSVSSSYLAWYQQKPGQAPRLLIYGASSRATGIPDRFSGSGSGTDFTLTISRLEPEDFAVYYCQQDYGFPWTFGQGTKVEIKGGGGSGGGGSGGGGSGGGGSEVQLVQSGAEVKKPGESLKISCKGSGYSFTSYWISWVRQMPGKGLEWMGIIDPSDSDTRYSPSFQGQVTISADKSISTAYLQWSSLKASDTAMYYCARGDGSTDLDYWGQGTLVTVSSGHHHHHH
notes: form VL-(Gly4Ser)4-VH-Gly-His6, expressed in HEK293 Expi cells; also called I3RB18 scFv; I3RB18 derived scFv
B3: I3RB121 (Fab, V domains shown)
VH: QVQLVQSGAEVKKPGSSVKVSCKASGGTFSSYAISWVRQAPGQGLEWMGGIIPIFGTANYAQKFQGRVTITADESTSTAYMELSSLRSEDTAVYYCARHLFWDAGPLDYWGQGTLVTVSS
VL: DIQMTQSPSSLSASVGDRVTITCRASQSISSYLNWYQQKPGKAPKLLIYAASSLQSGVPSRFSGSGSGTDFTLTISSLQPEDFATYYCQQYFSPPYTFGQGTKVEIK
notes: also called Fab of I3RB35

Key:
[1] = target: T1, cyno CD123 ECD displayed on …; test: MSD-CAT, cynoCD123 cells, assay-1
Method: (§1) The MSD-CAT was developed in-house as a label-free method to determine affinity using intact cells in a high throughput format. […] Cell lines used were human pDisplay CD and cyno pDisplay CD123SP1. […] These samples were prepared in DMEM Glutamax medium containing 0.05% Azide, 1% BSA, 3 mM EDTA. The receptor numbers of (3.15-4.18)×10⁶ hCD123/cell and (4.78-9.24) 10⁶ cyCD123/cell were converted to M receptor concentration in the mixture on the basis of the volume of reaction, the cell density (cells/L) and the Avogadro's number. […] After equilibration the plate was centrifuged for 5 min ˜1000 rpm and free anti-CD3 detected on the supernatant.

[2] = target: T1, cyno CD123 ECD displayed on …; test: MSD-CAT, cynoCD123 cells, assay-2
Method: as §1

[3] = target: T2, Recombinant human CD123 SP2 ECD protein; test: SPR Biacore 3000, captured Fab
Method: (§2) Kinetic studies were performed at 25° C. using a Biacore 3000 (BIAcore, Inc., now part of GE Healthcare). […] Sheep anti-Human Fd specific antibody (The binding site Prod # PC075) was covalently attached to two flow cells (normally 3 and 4) of the carboxymethyl dextran coated gold surfaces (CM-5 Chip, Biacore). The carboxymethyl groups of dextran were activated with N-Ethyl-N′-(3-Dimethylaminopropyl)carbodiimide (EDC) and N-hydroxysuccinimide (NHS). The antibodies were coupled at pH 4.5 in 10 mM sodium acetate. Any remaining reactive sites on the surface were blocked by reaction with ethanolamine. […] Association data was collected for 2 min followed by 10 min of dissociation. The surface was regenerated with 30 μL of 100 mM H3PO4 100 μL/min. All samples were prepared in D-PBS containing 3 mM EDTA and 0.005% surfactant P20. Data reported is the difference in SPR signal between the flow cell containing the captured antibody or Fab and a reference cell without captured antibody or Fab. Additional instrumental contributions to the signal were removed by subtraction of the data from the blank injection from the reference-subtracted signal. Data were performed in triplicate and analyzed by fitting association and dissociation phases at all concentrations (global fit) with a 1:1 binding model using the BIAevaluation software (BIAcore, Inc.). […] Data presented is an average.

[4] = target: T3, Recombinant human CD123 SP1 ECD-His tag …; test: SPR Biacore 3000, captured Fab
Method: as §2

[5] = target: T4, human CD123 SP1 ECD displayed on …; test: MSD-CAT, hCD123 cells, assay-2, fit with parameter Bo constrained
Method: (§3) After equilibration the plate was centrifuged for 5 min ˜1000 rpm and free anti-CD3 detected on the supernatant. […] The assay buffer was removed without washing and 50 μL/well of 0.7 μg/mL of biotinylated antigen in assay buffer were added to MSD plates and incubated overnight (˜16 hr at 4° C.). After overnight incubation, the plates were blocked by adding 150 μL/well of assay buffer without removing coating antigen, incubated for ˜1 hr at ambient temperature and washed 5 times with wash buffer (assay buffer without BSA). 50 μL/well of the supernantants from samples plate were transferred to antigen-coated plates, incubated for 60 min, and then washed three times with wash Buffer. After this 50 μL per well of ruthenium labeled detection antibody(anti-human H+L) were added and incubated for 1 hr. After 1 hr the plates were washed and 150 μL of MSD Read Buffer (prepared by diluting 1:4 of stock into d. H₂O) were added per well. The plates were read immediately on the MSD Sector Imager 6000 Reader for luminescence levels. ECL signal detected by MSD was expressed in term of % free antibody in the mixture and the data was analyzed to determine affinity using a user defined equation (derived from the law of mass action) introduced in Prism software.

[6] = target: T4, human CD123 SP1 ECD displayed on …; test: MSD-CAT, hCD123 cells, assay-2
Method: as §3

[7] = target: T4, human CD123 SP1 ECD displayed on …; test: MSD-CAT, hCD123 cells, assay-1
Method: as §3

[8] = target: T4, human CD123 SP1 ECD displayed on …; test: MSD-CAT, hCD123 cells, assay-1, fit with parameter Bo constrained
Method: as §3

[9] = target: T1, cyno CD123 ECD displayed on …; test: MSD-CAT on pDisplay cells
Method: as §3

[10] = target: T5, sp2 isoform of human CD123 ECD with …; test: size-exclusion chromatography of the mixed proteins
Method: The protein was concentrated to 18 mg/mL in 20 mM HEPES, pH 7.5, 100 mM NaCl.

[11] = target: T2, Recombinant human CD123 SP2 ECD protein; test: SPR Biacore 3000, captured Fab; footnote: assay response is lower than expected
Method: as §2

| Binder | Kd [1] | Kd [2] | Kd [3] | Kd [4] | koff [4] | kon [4] | Kd [5] | Kd [6] | Kd [7] | Kd [8] | fold difference of affinity against human CD123 SP1 [9] | binding result [10] | Kd [11] |
| --- | --- | --- | --- | --- | --- | --- | --- | --- | --- | --- | --- | --- | --- |
| B1 | 2.4 nM | > 11.9 nM | 1.4 nM | 8.5 nM | 0.00304 s⁻¹ | 357000 M⁻¹ s⁻¹ | 3.81 nM | ~3.84 nM | ~0.00337 nM | 344 nM | < 5 fold |  |  |
| B2 |  |  |  |  |  |  |  |  |  |  |  | binds |  |
| B3 |  |  |  | 6.3 nM | 0.00245 s⁻¹ | 387000 M⁻¹ s⁻¹ |  |  |  |  |  |  | 1.2 nM |
